Biological target: T1, IL-2 receptor βγ complex (IL-2Rβ and IL-2Rγ subunits) (Homo sapiens, UniProt P14784+P31785)
T1 construct: host or cells: recombinant human U2OS cell line (PathHunter)
T1 sequence (P14784 27-551): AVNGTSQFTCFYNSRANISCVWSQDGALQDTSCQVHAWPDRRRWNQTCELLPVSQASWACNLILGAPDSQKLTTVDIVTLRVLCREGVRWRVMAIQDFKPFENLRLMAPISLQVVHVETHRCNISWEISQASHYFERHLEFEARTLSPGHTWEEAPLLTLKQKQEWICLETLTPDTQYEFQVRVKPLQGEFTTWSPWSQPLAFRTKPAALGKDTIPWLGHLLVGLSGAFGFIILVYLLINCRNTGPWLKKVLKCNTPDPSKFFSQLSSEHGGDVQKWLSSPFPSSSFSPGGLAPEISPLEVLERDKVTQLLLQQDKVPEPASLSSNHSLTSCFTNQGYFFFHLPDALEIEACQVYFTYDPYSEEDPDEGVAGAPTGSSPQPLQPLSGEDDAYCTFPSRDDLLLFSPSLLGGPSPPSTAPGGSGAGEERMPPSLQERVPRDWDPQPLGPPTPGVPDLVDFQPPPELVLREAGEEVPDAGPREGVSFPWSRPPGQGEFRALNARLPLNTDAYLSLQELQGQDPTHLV
T1 sequence (P31785 23-369): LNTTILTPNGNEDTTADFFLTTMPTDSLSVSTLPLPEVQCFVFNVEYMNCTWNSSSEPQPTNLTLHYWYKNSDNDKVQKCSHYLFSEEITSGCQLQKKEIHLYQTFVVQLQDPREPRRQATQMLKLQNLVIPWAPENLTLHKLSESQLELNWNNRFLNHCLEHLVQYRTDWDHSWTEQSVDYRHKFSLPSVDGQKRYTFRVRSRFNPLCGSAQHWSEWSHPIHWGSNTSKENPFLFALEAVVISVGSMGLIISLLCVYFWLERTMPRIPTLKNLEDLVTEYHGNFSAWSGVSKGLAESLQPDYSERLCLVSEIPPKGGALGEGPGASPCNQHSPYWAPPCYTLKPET
Assay: PathHunter IL-2 Cytokine Receptor assay, agonist mode, βγ cell line
Type: cell-based
Settings: ratio of the EC50 values
Experimental: PathHunter cell lines were expanded from freezer stocks according to standard procedures. Cells were seeded in a total volume of 20 μL into white walled, 384-well microplates and incubated for the appropriate time prior to testing.
For agonist determination, cells were incubated with sample to induce response. Intermediate dilution of sample stocks was performed to generate 5× sample in assay buffer. About 5 μL of 5× sample was added to cells and incubated at 37° C. for 6 to 16 hours depending on the assay. Vehicle concentration was 1%.
Assay signal was generated through a single addition of 12.5 or 15 μL (50% v/v) of PathHunter Detection reagent cocktail for agonist and antagonist assays respectively, followed by a one hour incubation at room temperature. For some assays, activity was detected using a high sensitivity detection reagent (PathHunter Flash Kit) to improve assay performance. In these assays, an equal volume of detection reagent (25 or 30 μL) was added to the wells, followed by a one hour incubation at room temperature. Microplates were read following signal generation with a PerkinElmer Envision™ instrument for chemiluminescent signal detection.
Compound activity was analyzed using CBIS data analysis suite (ChemInnovation, CA). For agonist mode assays, percentage activity was calculated using the following Formula:
% Activity=100%×(mean RLU of test sample−mean RLU of vehicle control)/(mean MAX RLU control ligand−mean RLU of vehicle control).
A second cell line has been further engineered to express the IL-2Rα subunit. […] The assay was run in agonist mode to determine the EC50 of each test article, and comparison of dose-response curve profiles between IL2Rα positive and negative cell types allows determination of the contribution of IL2Rα to the observed activity.

P65_30kD: SEQ ID NO: 25: IL-2 (SEQ ID NO: 4) with P65 replaced by AzK click-conjugated to methoxy linear 30 kDa PEG [Compound P65_30kD]
βγ/αβγ ratio: 5
